Results on one molecule are retold here after article PMC9079162 (Computational and Structural Biotechnology Journal, 2022).

The target of this experiment is human complement regulatory factor H (hfH) (human, UniProt P08603 19-1231). The experiment can be described thus: SPR. A general note: SPR reads the build-up and loss of mass on a sensor chip optically.

By Kd is commonly meant the equilibrium constant for the complex coming apart. Lower therefore signals a tighter complex.

Chain of human complement regulatory factor H (hfH) (P08603 19-1231): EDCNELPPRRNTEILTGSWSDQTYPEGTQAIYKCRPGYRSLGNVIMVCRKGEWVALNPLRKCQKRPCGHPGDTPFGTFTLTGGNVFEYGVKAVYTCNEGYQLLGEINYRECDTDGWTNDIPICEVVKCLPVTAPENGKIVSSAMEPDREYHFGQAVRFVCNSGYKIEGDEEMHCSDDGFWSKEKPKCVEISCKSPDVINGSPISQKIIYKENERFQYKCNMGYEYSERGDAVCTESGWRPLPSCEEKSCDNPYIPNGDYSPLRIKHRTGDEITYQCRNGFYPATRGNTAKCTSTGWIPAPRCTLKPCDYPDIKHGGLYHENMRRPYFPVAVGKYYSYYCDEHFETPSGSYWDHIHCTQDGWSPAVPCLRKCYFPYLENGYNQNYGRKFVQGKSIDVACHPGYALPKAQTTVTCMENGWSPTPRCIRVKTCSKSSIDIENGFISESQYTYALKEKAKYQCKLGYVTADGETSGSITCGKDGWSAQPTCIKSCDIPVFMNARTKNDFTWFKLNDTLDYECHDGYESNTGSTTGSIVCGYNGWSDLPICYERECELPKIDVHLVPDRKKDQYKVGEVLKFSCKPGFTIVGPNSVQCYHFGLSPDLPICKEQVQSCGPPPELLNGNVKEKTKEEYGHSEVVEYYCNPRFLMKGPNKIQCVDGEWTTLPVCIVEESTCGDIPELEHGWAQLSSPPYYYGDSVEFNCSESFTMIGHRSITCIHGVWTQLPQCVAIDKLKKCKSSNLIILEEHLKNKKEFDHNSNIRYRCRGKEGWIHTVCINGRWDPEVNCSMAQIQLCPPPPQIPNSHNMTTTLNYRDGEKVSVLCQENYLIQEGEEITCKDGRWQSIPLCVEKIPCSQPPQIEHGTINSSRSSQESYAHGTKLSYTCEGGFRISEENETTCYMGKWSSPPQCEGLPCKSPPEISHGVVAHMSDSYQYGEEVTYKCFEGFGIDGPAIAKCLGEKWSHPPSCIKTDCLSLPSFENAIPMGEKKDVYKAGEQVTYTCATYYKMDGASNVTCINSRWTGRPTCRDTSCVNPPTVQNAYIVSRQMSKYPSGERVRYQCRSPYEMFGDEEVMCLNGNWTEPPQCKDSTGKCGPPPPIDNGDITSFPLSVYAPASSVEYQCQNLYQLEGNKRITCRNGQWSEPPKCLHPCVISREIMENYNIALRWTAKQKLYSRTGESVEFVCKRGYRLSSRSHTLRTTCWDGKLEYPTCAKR

B1: factor H binding protein (fHbp) variant1 (natural protein)
chain: CSSGGGGVAADIGAGLADALTAPLDHKDKGLQSLTLDQSVRKNEKLKLAAQGAEKTYGNGDSLNTGKLKNDKVSRFDFIRQIEVDGQLITLESGEFQVYKQSHSALTAFQTEQIQDSEHSGKMVAKRQFRIGDIAGEHTSFDKLPEGGRATYRGTAFGSDDAGGKLTYTIDFAAKQGNGKIEHLKSPELNVDLAAADIKPDGKRHAVISGSVLYNQAEKGSYSLGIFGGKAQEVAGSAEVKTVNGIRHIGLAAKQ
Molecule B1 registered a Kd of 22.7 nM.
